# Measurements: patent US20120277144A1 (published 2012)
# B1: FYVE, RhoGEF and PH domain-containing 5 (FGD5) (enzyme)
# chain: MFRGPKPPIAPKPRLTAPNEWRASVYLNDSLNKCSNGRLPCVDRGLDEGPRSIPKCSESETDEDYIVVPRVPLREDEPKDEGSVGNKALVSPESSAEEEEEREEGGEACGLEGTGAGEDSVAPAAPGAGALSREGEEGTDLALEDEGEGCADEPGTLEQVSRSEEEEKLVQPHRECSLEDSGPWAGEGVFQSDLLLPHIHGEDQEPPDTPGEAEEDDEEGCASTDPAGADEGSGPDRPTEDMGQDAEDTSEEPPEKEELAGVQEAETATDCPEVLEEGCEEATGVTGGEQVDLSEPPDHEKKTNQEVAAATLEDHAQDESAEESCQIVPFENDCMEDFVTSLTGSPYEFFPTESTSFCSESCSPLSESAKGLESEQAPKLGLRAEENPMVGALCGQCGSLQGGAAEGPAAPDVVVVLEEEALDDALANPYVMGVGLPGQAAPGEGGQAASDALGGYGSKEELNCEAEGGLVPADRKNTSTRVRPHSGKVAGYVPETVPEETGPEAGSSAPGIGGAAEEVGKTLLSLEGKPLEASRALPAKPRAFTLYPRSFSVEGREIPVSVYQEPEGSGLDDHRIKRKEDNLSLSCVIGSSGSFSQRNHLPSSGTSTPSSMVDIPPPFDLACITKKPITKSSPSLLIESDSPDKYKKKKSSFKRFLALTFKKKTENKLHVDVNVSSSRSSSESSYHGPSRILEVDRRSLSNSPQLKSRTGKLRASESPSSLIFYRDGKRKGVPFSRTVSRVESFEDRSRPPFLPLPLTKPRSISFPSADTSDYENIPAMNSDYENIQIPPRRPARAGAFTKLFEDQSRALSTANENDGYVDMSSFNAFESKQQSADQDAESAYTEPYKVCPISSAAPKEDLTSDEEQRSSEEEDSASRDPSVTHKVEGQSRALVIAQELLSSEKAYVEMLQHLNLDFHGAVMRALDDMDHEGRDTLAREELRQGLSELPAIHDLHQGILEELEERLSNWESQQKVADVFLAREQGFDHHATHILQFDRYLGLLSENCLHSPRLAAAVREFEQSVQGGSQTAKHRLLRVVQRLFQYQVLLTDYLNNLCPDSAEYDNTQGALSLISKVTDRANDSMEQGENLQKLVHIEHSVRGQGDLLQPGREFLKEGTLMKVTGKNRRPRHLFLMNDVLLYTYPQKDGKYRLKNTLAVANMKVSRPVMEKVPYALKIETSESCLMLSASSCAERDEWYGCLSRALPEDYKAQALAAFHHSVEIRERLGVSLGERPPTLVPVTHVMMCMNCGCDFSLTLRRHHCHACGKIVCRNCSRNKYPLKYLKDRMAKVCDGCFGELKKRGRAVPGLMRERPVSMSFPLSSPRFSGSAFSSVFQSINPSTFKKQKKVPSALTEVAASGEGSAISGYLSRCKRGKRHWKKLWFVIKGKVLYTYMASEDKVALESMPLLGFTIAPEKEEGSSEVGPIFHLYHKKTLFYSFKAEDTNSAQRWIEAMEDASVL
# notes: Guanine-nucleotide exchange factor; The co-IP used lysates of HUVECs transfected with adenovirus encoding human FGD5 cDNA; also called Ad-FGD5 transgene product
# Target: Rac1 (human, UniProt P63000 1-189)
# Experiment: co-immunoprecipitation with anti-FGD5 antibody from lysates of FGD5 overexpressing HUVECs, western blot
# Procedure: GTP-RhoA, Rac1, and cdc42 activation levels were measured using the G-lisa detection system (Tebu-Bio, The Netherlands). For FGD5-protein complex co-immunoprecipitation, magnetic beads (Dynabeads, Invitrogen, The Netherlands) were coated and cross-linked with 2.5 μg anti-FGD5 antibody (Bioscience, The Netherlands) before immunoprecipitation overnight at 4° C. with protein cell lysates of transfected HUVECs (50 μg total protein of a volume of 100 μl incubation buffer). Beads were washed and the protein samples were eluted with eluation buffer (Invitrogen, The Netherlands) before analysis by western blot.
binder,measurement,value
B1,binding result,no binding
